From paper PMC8346289 (Journal of medicinal chemistry, 2014)

Target: the molecule itself
Test: crystal structure

B1: K47A mutant of human thymidylate synthase (enzyme)
chain: MPVAGSELPRRPLPPAAQERDAEPRPPHGELQYLGQIQHILRCGVRADDRTGTGTLSVFGMQARYSLRDEFPLLTTKRVFWKGVLEELLWFIKGSTNAKELSSKGVKIWDANGSRDFLDSLGFSTREEGDLGPVYGFQWRHFGAEYRDMESDYSGQGVDQLQRVIDTIKTNPDDRRIIMCAWNPRDLPLMALPPCHALCQFYVVNSELSCQLYQRSGDMGLGVPFNIASYALLTYMIAHITGLKPGDFIHTLGDAHIYLNHIEPLKIQLQREPRPFPKLRILRKVEKIDDFKAEDFQIEGYNPHPTIKMEMAV
  binding result: binds
